Assay results as given in patent US10584153B2, “Treatment of damaged nerve with PTEN inhibitor” (TISSUEGENE, INC., priority 2013, dated 2020).
Where “and” joins values, the source holds several entries; their conditions need not be identical. Equal entries are not always repeated. No end group written: not given here.

Experiments:
PTEN [1] = target: T1, PTEN (Homo sapiens, UniProt P60484); details: from Odriozola et al.; read-out: IC50, in vitro PTEN (Odriozola peptides); cited from earlier work
Target sequence in this assay (P60484 whole entry, species assumed): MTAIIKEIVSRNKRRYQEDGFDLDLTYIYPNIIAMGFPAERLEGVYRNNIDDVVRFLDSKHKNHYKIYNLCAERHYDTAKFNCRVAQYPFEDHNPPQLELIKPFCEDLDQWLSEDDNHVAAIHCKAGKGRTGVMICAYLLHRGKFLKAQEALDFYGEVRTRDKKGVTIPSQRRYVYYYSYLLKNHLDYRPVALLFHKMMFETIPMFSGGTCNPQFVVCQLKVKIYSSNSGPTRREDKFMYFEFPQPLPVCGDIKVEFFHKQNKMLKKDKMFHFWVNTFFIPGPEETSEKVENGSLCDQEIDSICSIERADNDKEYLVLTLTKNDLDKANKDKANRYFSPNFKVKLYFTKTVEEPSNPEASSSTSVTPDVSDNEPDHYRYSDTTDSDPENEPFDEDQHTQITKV

PTEN [2] = target: T1, PTEN; assay: In vitro PTEN activity assay / IC50 assay (Malachite Green, C8-PIP3 liposome); assay type: biochemical; parameters: purchased R&D Systems, Inc; details: 10 μM peptide
Target sequence in this assay (P60484 whole entry): as the sequence (P60484 whole entry, species assumed) above
Text: In vitro PTEN activity assay was designed to check PTEN lipid phosphatase activity to convert phosphatidylinositol triphosphate (PIP3) to phosphatidylinositol diphosphate (PIP2) and produce phosphate ion (Pi). 1,2-dioctanoyl-sn-glycero-3-phospho-(1′-myo-inositol-3,4,5-triphosphate) (C8-PIP3) was used as PTEN substrate and prepared as lipid vesicle (liposome) with other phospholipids because PTEN as lipid phosphatase is an interfacial enzyme. For liposome preparation, C8-PIP3, DOPS (1,2-dioeloyl-sn-glycero-phosphoserine) and DOPC (1,2-dioeloyl-sn-glycero-phosphocholine) were mixed together with 800 μL of liposome buffer (50 mM Tris, 100 mM NaCl, 10 mM MgCl2, 5 mM DTT, pH=8.0) to final concentration of 0.1 mM of C8-PIP3, 0.25 mM DOPS and 0.25 mM DOPC. The lipid mixture was then sonicated at 4° C. for 30 min to produce liposome. After sonication, the liposome solution was briefly centrifuged to remove remaining lipids.
For PTEN activity assay, 20 ng of recombinant human PTEN protein was mixed with 40 μL of completed liposome solution. […] After incubation, the inorganic phosphate ions produced by PTEN protein was detected using Malachite Green phosphate detection kit. […]
All data represent experimentation in triplicate and the IC50 values were calculated by Prism 5 software (GraphPad Software).

[3] = tested on: Akt protein phosphorylation in PC12 cells (PI3K-Akt signaling pathway); assay: Akt activation (phosphorylation) level by Western blot in PC12 cells; assay type: cell-based, rat; details: endogenous or overexpressed PTEN, TGN-1 10 and 100 μM, TGN-4 10 μM, 24 hr
Experimental: PC12 rat pheochromocytoma cells were seeded to 6-well plate (0.6×10^6 cells/well) and cultured with DMEM media containing 7.5% FBS and 7.5% Goat Serum. After the cell confluency reached around 60˜70%, NGF (nerve growth factor, 50 ng/mL) was added to the PC12 cells for differentiation and incubated for 5 more days. Then, fresh media containing different amounts of TGN peptides in DMSO solution were added to each well and incubated further for 24 hr. For PTEN overexpession, PC12 cells were seeded in 6-well plate (1.0×10^6 cells/well) and differentiated with NGF (50 ng/mL) as above. DNA-Lipofectamine 2000 mixture was prepared for each well of cells to be transfected by firstly adding 2˜2.5 μg of human PTEN c-DNA into 500 μl of Opti-MEM. 3.75-8.75 μl of Lipofectamine 2000™ reagent was added next to the above diluted DNA solution, mixed gently and incubated for 25 minutes at room temperature. Growth media of PC12 cells in 6-well plate was exchanged with fresh media and 500 μl of the DNA-Lipofectamine 2000 complex was added to each well for transfection. Transfected cells were incubated at 37° C. in 5.0% CO2 incubator for 24-48 hours post-transfection before assaying for transgene expression.
After culturing, PC12 cells were collected from the 6-well plate and centrifuged down with bench-top centrifuger to make cell pellet (13,000 rpm, 5 min at RT). […]

| Substance | IC50 (PTEN [1]) | Inhibitory effect on in vitro PTEN activity (PTEN [2]) | Activation (phosphorylation) level of Akt protein [3] |
| --- | --- | --- | --- |
| Cp23: synthetic phosphomimic peptide of Odriozola et al. encompassing PTEN AA368-390, no phosphorylated Serine residues (DVSDNEPDHYRYSDTTDSDPENE; UniProt P60484 368-390, looked up, fragment) | ~1030 µM and 1030 µM | – | – |
| RRRRRRRR-DEHDTEYTPDYRQETHFNSQPTDKSDVI-amide (RRRRRRRRDEHDTEYTPDYRQETHFNSQPTDKSDVI-NH2) [TGN-5, TGN-2/TGN-3 scrambled peptide] | – | no significant inhibition | – |
| RRRRRRRR-SDDEYTDNPDSRYVSDTPVDTEH-amide (RRRRRRRRSDDEYTDNPDSRYVSDTPVDTEH-NH2) [TGN-4, scrambled peptide of TGN-1 peptide, negative control] | – | no significant inhibition | did not increase the activation level of AKT protein |
